This is an account of results in patent US20220298260A1 (MYTHIC THERAPEUTICS, published 2022).

The chains are these.
B1: MYT0598 (antibody, V domains shown)
VH: QVQLVQSGAEVVKPGASVKISCKHSGYTFTGYFMNWVKQSPGQSLEWIGRIHPYDGDTFYNQKFQGKATLTVDKSSNTAHMELLSLTSEDFAVYYCTRYDGSRAMDYWGQGTTVTVSS
VL: DIVLTQSPLSLAVSLGQPAIISCKASQSVSFAGTSLMHWYHQKPGQQPRLLIYRASNLEAGVPDRFSGSGSKTDFTLTISPVEAEDAATYYCQQSREYPYTFGGGTKLEIK
notes: IgG
B2: MYT0604 (antibody, V domains shown)
VH: QVQLVQSGAEVVKPGASVKISCKASGYTFHGYFMNWVKQSPGQSLEWIGRIHPYDGDTFYNQKFQGKATLTVDKSSNTAHMELLSLTSEDFAVYYCTRYDGSRAMDYWGQGTTVTVSS
VL: DIVLTQSPLSLAVSLGQPAIISCKASQSVSFAGTSLMHWYHQKPGQQPRLLIYRASNLEAGVPDRFSGSGSKTDFTLTISPVEAEDAATYYCQQSREYPYTFGGGTKLEIK
notes: IgG
B3: MYT0602 (antibody, V domains shown)
VH: QVQLVQSGAEVVKPGASVKISCKASGYHFTGYFMNWVKQSPGQSLEWIGRIHPYDGDTFYNQKFQGKATLTVDKSSNTAHMELLSLTSEDFAVYYCTRYDGSRAMDYWGQGTTVTVSS
VL: DIVLTQSPLSLAVSLGQPAIISCKASQSVSFAGTSLMHWYHQKPGQQPRLLIYRASNLEAGVPDRFSGSGSKTDFTLTISPVEAEDAATYYCQQSREYPYTFGGGTKLEIK
notes: IgG
B4: MYT0601 (antibody, V domains shown)
VH: QVQLVQSGAEVVKPGASVKISCKASGHTFTGYFMNWVKQSPGQSLEWIGRIHPYDGDTFYNQKFQGKATLTVDKSSNTAHMELLSLTSEDFAVYYCTRYDGSRAMDYWGQGTTVTVSS
VL: DIVLTQSPLSLAVSLGQPAIISCKASQSVSFAGTSLMHWYHQKPGQQPRLLIYRASNLEAGVPDRFSGSGSKTDFTLTISPVEAEDAATYYCQQSREYPYTFGGGTKLEIK
notes: IgG
B5: MYT0600 (antibody, V domains shown)
VH: QVQLVQSGAEVVKPGASVKISCKASHYTFTGYFMNWVKQSPGQSLEWIGRIHPYDGDTFYNQKFQGKATLTVDKSSNTAHMELLSLTSEDFAVYYCTRYDGSRAMDYWGQGTTVTVSS
VL: DIVLTQSPLSLAVSLGQPAIISCKASQSVSFAGTSLMHWYHQKPGQQPRLLIYRASNLEAGVPDRFSGSGSKTDFTLTISPVEAEDAATYYCQQSREYPYTFGGGTKLEIK
notes: IgG
B6: MYT0597 (antibody, V domains shown)
VH: QVQLVQSGAEVVKPGASVKISCHASGYTFTGYFMNWVKQSPGQSLEWIGRIHPYDGDTFYNQKFQGKATLTVDKSSNTAHMELLSLTSEDFAVYYCTRYDGSRAMDYWGQGTTVTVSS
VL: DIVLTQSPLSLAVSLGQPAIISCKASQSVSFAGTSLMHWYHQKPGQQPRLLIYRASNLEAGVPDRFSGSGSKTDFTLTISPVEAEDAATYYCQQSREYPYTFGGGTKLEIK
notes: IgG
B7: MYT0599 (antibody, V domains shown)
VH: QVQLVQSGAEVVKPGASVKISCKAHGYTFTGYFMNWVKQSPGQSLEWIGRIHPYDGDTFYNQKFQGKATLTVDKSSNTAHMELLSLTSEDFAVYYCTRYDGSRAMDYWGQGTTVTVSS
VL: DIVLTQSPLSLAVSLGQPAIISCKASQSVSFAGTSLMHWYHQKPGQQPRLLIYRASNLEAGVPDRFSGSGSKTDFTLTISPVEAEDAATYYCQQSREYPYTFGGGTKLEIK
notes: IgG
B8: MYT0605 (antibody, V domains shown)
VH: QVQLVQSGAEVVKPGASVKISCKASGYTFTHYFMNWVKQSPGQSLEWIGRIHPYDGDTFYNQKFQGKATLTVDKSSNTAHMELLSLTSEDFAVYYCTRYDGSRAMDYWGQGTTVTVSS
VL: DIVLTQSPLSLAVSLGQPAIISCKASQSVSFAGTSLMHWYHQKPGQQPRLLIYRASNLEAGVPDRFSGSGSKTDFTLTISPVEAEDAATYYCQQSREYPYTFGGGTKLEIK
notes: IgG

For the assay, the target named is T1, FOLR1 (R&D Systems, Cat #5646-FR) (human, UniProt P15328 25-233).
T1 construct: Bought soluble protein; also called Folate Receptor 1
T1 sequence (P15328 25-233 limits assumed): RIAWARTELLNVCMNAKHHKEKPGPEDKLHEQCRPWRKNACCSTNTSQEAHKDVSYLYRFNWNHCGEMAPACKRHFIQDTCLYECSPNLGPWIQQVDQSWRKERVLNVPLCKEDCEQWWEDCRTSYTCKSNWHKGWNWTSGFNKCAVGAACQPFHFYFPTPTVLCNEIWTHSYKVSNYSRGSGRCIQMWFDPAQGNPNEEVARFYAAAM
As to the kind of experiment: BLI, IgG on anti-human Fc sensor, 50 nM FOLR1.
Turning to B1, the binding result was “binds”.
Next, B2: “binds”; B3: “binds”; B4: “binds”.
With B5 the entry was “binds”; with B6, “binds”; with B7, “binds”.
Next, B8: “binds”.
